From PMC5882645, “NMR Structure, Dynamics and Interactions of the Integrin β2 Cytoplasmic Tail with Filamin Domain IgFLNa21” (Scientific Reports, 2018) come the findings set out here.

The target in assay [1] is T1, IgFLNa21 domain of filamin A (Gly2236-Ser2329) (UniProt P21333 2236-2329).
T1 construct: filamin A, Ig-like repeat 21 (IgFLNa21), residues Gly2236-Ser2329; The same range also stands as the C-terminal part of the hybrid chain m5 (cloned in pET14b); the rows on the hybrid use m1 for this domain; also called IgFLNa21 filamin; wild-type IgFLNa21; source: E. coli rosetta, synthetic gene in pET24a, 15N/13C-labelled, purified (Ni-NTA, size-exclusion chromatography)
T1 sequence (looked up): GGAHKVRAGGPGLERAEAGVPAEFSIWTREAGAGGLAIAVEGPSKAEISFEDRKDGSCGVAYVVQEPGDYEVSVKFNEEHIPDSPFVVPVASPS
The assay is described as follows: NMR structure; solution structure of the hybrid chain (β2 CT 752-763 joined to IgFLNa21 by the linker …), 300 μM, 298 K; CYANA, refined by X-plor-NIH with explicit water. As to conditions: both partners purified.

Assay [2] has as its target T1, IgFLNa21 domain of filamin A …. The assay is described as follows: NMR titration; 15N-1H HSQC of IgFLNa21 (100 μM) with sequential additions of peptide at 1:0, 1:1, 1:2 and 1:3 ratios; 298 K; 25 mM sodium phosphate, 5 mM NaCl, 2 mM DTT, 10% D2O, pH 6.5. As to conditions: both partners purified.

No end group written: not given here.

B1: C-terminal filamin-binding region (P752-N763) of integrin β2 CT, as it stands in the hybrid IgFLNa21 (peptide)
chain: PLFKSATTTVMN
modifications: also: fused via GASGSGASGS linker to IgFLNa21 N-terminus
notes: also called β2 CT peptide; β2 CT part of hybrid IgFLNa21; source: E. coli rosetta, purified (Ni-NTA, size-exclusion chromatography) as the N-terminal part of the hybrid chain
In the case of B1, in assay [1], the binding result is on record as “binds”.

B2: Synthetic integrin full-length β2-CT (residues 724-769) (peptide, UniProt P05107 724-769, looked up)
chain: KALIHLSDLREYRRFEKEKLKSQWNNDNPLFKSATTTVMNPKFAES
notes: integrin β2 cytoplasmic tail, residues 724-769; also called full length integrin β2 CT; integrin β2 cytoplasmic tail; source: synthetic peptide, bought: GLBioChem (Shanghai), further purified by reverse phase HPLC
Take B2: in assay [2], the binding result is listed as “binds”.
